Source: the nanobody polyreactivity screen of Harvey et al. (2022)

Assay: yeast display, Sf9 membrane polyspecificity reagent, FACS + sequencing; frameworks hold sequencing errors
How it was run: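 A nanobody's polyreactivity label depends on the gate it was sorted from. Yeast display cells were stained with 10% biotinylated, detergent-solubilized Sf9 membrane reagent for 1 hour at 4 °C, enriched on streptavidin microbeads and sorted by FACS. The low and high (top ~1%) gates were set on anti-HA fluorescence for expression and streptavidin fluorescence for reagent binding.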

| Sequence | polyreactivity (PSR sort gate) |
| --- | --- |
| QVQLVESGGGLVQAGGSLRLSCPASGFIFRYYAMGWYRQAPGKERELVAAISWSGGSTNYADSVKGRFTISRDNAQNTVYLQINSLKPEDTALSYCADDGTVRSWGRYYHWGQGTQVTVSS | low polyreactivity |
| QVQLVESGGGLVQAGGSLRLSCPASGFTLHSYAMGWYRQAPGKERELVAAITRSGGGTYYADSVKGRFTISRDNAKNTVYLQMNSLKPEDTAVYYCAARFGGQYQHDYWGQGTQVTVSS | high polyreactivity |
| QVQLVESGGGLVQAGGSLRLSCPASGGNFPFNGMGWSRQAPGKERELVAAISSGGRTYYADSVKGRFTISRDNAKNTVYLQMNSLKPEDTAVYYCAARTSRYYYYPYAFYWGQGTQVTVSS | high polyreactivity |
| QVQLVESGGGLVQAGGSLRLSCPASGLIFNSYAMGWYRQARGTERELVAAISRHGGITYYADSVKGRFTISRDHAKNTVYLQMNSLKPEDTAVYYCNADSSRRRYSSDYWGQGTQVTVSS | high polyreactivity |
| QVQLVESGGGLVQAGGSLRLSCPASGRIFHRNTMGWYRPAPGKERELVAAIRSGSRTYYADSVKGRFTISRDNAKNTVYLQMNSLKPEDKAVYYCATTYGSPRYDYWGQGTQVTVSS | high polyreactivity |
| QVQLVESGGGLVQAGGSLRLSCPASGRIFQLYAMGWYRQAPGKERELVAAIRYSGDSTYYADSVKGRLTISRDNAKNTVYLQLNSLKPEDTAVYYCAARSRYGYRNKYEYWGQGTQVTVSS | high polyreactivity |
| QVQLVESGGGLVQAGGSLRLSCPASGRTFGDYAMGWYRQAPGKERELVAAISSSGGRTYYADSVKGRFTISRDNAKNTVYLQMNSLKPEDTAVYYCAAQSKYYQYYSWGQGTQVTVSS | high polyreactivity |
| QVQLVESGGGLVQAGGSLRLSCPASGRTFGIYAMGWYRQAHGKERELVAAITWSGDSTYYADSVKGRFTISRDNAKNTVYLQMNSLKPEDTAVYYCAADYVGVTSVRYDYWGQGTQVTVSS | low polyreactivity |
| QVQLVESGGGLVQAGGSLRLSCPASGRTFQVYAMGWYRQAPGKERELVAGITRAGSTYYADSVKGRFTISRDNAKNTVYLQMISLKPEDTAVYYCAAGWKSSYYIWRYGSWGQGTQVTVSS | high polyreactivity |
| QVQLVESGGGLVQAGGSLRLSCPASGRTFVVYAMGWYRQAPGKEREFVAAITTRGNSTYYADSVKGRFTISRDNAKNTVYLQMNSLKPEDTAVYYCAAVLRLSTLTTDFGYWGQGTQVTVSS | high polyreactivity |
| QVQLVESGGGLVQAGGSLRLSCPASGRTFYGYPMGWYRQAPGKERELVAAISRRGGSTNYADSVKGRFTISRDHAKNTVYLQMNSRKPEDTAVYSCNANYYRTHYDYWGQGTQVTVSS | high polyreactivity |
| QVQLVESGGGLVQAGGSLRLSCPASGSIFSAYAMGWYRQAPGNEREFVAAITRRGGNTYYADSVKGRFTISRDNAKNTVYLQMNSLKPEDTAVYYCAAIRRQKGLWDYYYWGQGTQVTVSS | low polyreactivity |
| QVQLVESGGGLVQAGGSLRLSCPASGSIFWPNAMGWYRQAPGKERELVASINSGSGSTYYADSVKGRFTISRDNAKNTVYLQMNSLKPEDTAVYYCNAAGAYPYYSEDYYWGQGTQVTVSS | low polyreactivity |
| QVQLVESGGGLVQAGGSLRLSCPASGSIFYYYAMGWYRQEPGKERELVATITWNGAGTFYADSVKGRFTISRDNAKNTVYLQMNSLKPEDTAVYYCAASWYGESGYDYWGQGSQVTVSS | low polyreactivity |
| QVQLVESGGGLVQAGGSLRLSCPASGSTFGPYAMGWYRQAPGKERELVAAISSTGGSTYYADSVKGRFTISRDNAKNTVYLQMNSLKPEDTAVYYCAAYSTYARGYWGQGTQVTVSS | high polyreactivity |
| QVQLVESGGGLVQAGGSLRLSCPASGSTFSYNMGWYRPAPGKERELVAAISGSGGSTYADSVKGRFTISRDNAKKTVYLQMNSLKPEDTAVYYCATVRYWVHEYGFWGLGTQVTVSS | high polyreactivity |
| QVQLVESGGGLVQAGGSLRLSCPASGSTFTLYVMGWYRPAPGKERELVAAISSNGGRTYYADSVKGRFTISRDNAKNTVYLQMNSLKPEDTAVYDCAAGKIGRYHYDYWGQGTQVTVSS | high polyreactivity |
| QVQLVESGGGLVQAGGSLRLSCPASGSTFWYYAMGWYRQAPGKERELVAAITRGGSTNYADSVKGRFTISRDNAKNTVYLQMNSLKPEDTAVYYCAKDGPQYRYYYWGQGTQVTVSS | high polyreactivity |
| QVQLVESGGGLVQAGGSLRLSCPASGSTIDPNARGWYRQAPGNERELVAAISYTGGRTYYADSVKGRFTISRDNAKNTVYLQMNSLKPEDTAVYYCAVLVVGATTQDEPYFSGVEHDYWGQGTQVTVSS | low polyreactivity |
| QVQLVESGGGLVQAGGSLRLSCPASGYIFYRNAMVWYRQAPGKERELVAAITYTGGRTYYADSVKGRFTISRDNAKNTVYLQMNSLNPEDTAVYYCNADGRVFVVRPYYDYEYWGQGTQVTVSS | low polyreactivity |
| QVQLVESGGGLVQAGGSLRLSCSASGFIFRYNAMGWYRQAPGKEREFVAAISQGGASTYYADSVKGRFTISRDNAKNTVYLQMNSLKPEDTAVYYCNAVVDTSKYTDYYWGQGTQVTVSS | low polyreactivity |
| QVQLVESGGGLVQAGGSLRLSCSASGFIFWYNAMGWYRQAPGKERELVAAISWSGGRTYYADSVKGRFTISRDNAKNTVYLQMNSLKPEDSAVYYCAAKVPRSSRSYGYWGQGTQVTVSS | high polyreactivity |

| Sequence | polyreactivity (PSR sort gate) |
| --- | --- |
| QVQLVESGGGLVQAGGSLRLSCSASGFIFWYYAMGWYRQAPGKERELVAAISSGGSTNYADSVKGRFAISRDNAKNTVYLQLNSLIPVDTAVYYCATSSIWGSARVRWVTYYYWGQGTQVTVSS | low polyreactivity |
| QVQLVESGGGLVQAGGSLRLSCSASGFIFYSYAMGWSRPAPGKEREFVAAISRSGGITYYADSVKGRFTISRDNAKNTVYLQMNSLKPEDTAVYYCAKVGRAVSSIKDMDSWGQGTQVTVSS | high polyreactivity |
| QVQLVESGGGLVQAGGSLRLSCSASGFTFRSYAMGWYRQAPGEEREFVAAISRRGDSTYYADSVKGRFTISRDNAKNTVYLQMNSLKPEDTAVYYCAKYGIASRYSRFDSWGQGTQVTVSS | high polyreactivity |
| QVQLVESGGGLVQAGGSLRLSCSASGFTFRTYAMGWYRQAPGKETELVAAISRDGSSTYYADSVKGRFTISRDNAKNTVYLQLKSLKPEDTAVYYCAARIIRFYTSADKLVTSRYYYWGQGTQVTVSS | high polyreactivity |
| QVQLVESGGGLVQAGGSLRLSCSASGGIFSAYAMGWYRQSPGKERELVAAISRTGGSTYYADSVKGRFTISRDNAKNTVYLQMNSLKPEDTAVYYCNAVYRRYPEFDYWGQGTQVTVSS | high polyreactivity |
| QVQLVESGGGLVQAGGSLRLSCSASGHIFRTYAMGWYRQAPWKERELVAGITPNGDTTYYADSVKGRFTISRDHAKITVYLQMNSLKPEDTAVYYCDAQYSQRPADRYNSWGQGTQVTVSS | low polyreactivity |
| QVQLVESGGGLVQAGGSLRLSCSASGITFGTYAMGWYRQAPGKERELVASITYGGTNTYYADSVKGRFTISRDNAKNTVCLQMNSLKPEDTAVYYCNADPAVSRGSIATDDYDYWVQGTQVTVSS | low polyreactivity |
| QVQLVESGGGLVQAGGSLRLSCSASGITFLANAMAWYRPATGKERELVATITSRGASSYYADSVKVRFTISRDNAKNTVYLQMNSLKPEDTAVYYCAATVRRRYERYNDWAQGTQVTVSS | high polyreactivity |
| QVQLVESGGGLVQAGGSLRLSCSASGITFNANAMGWYRQATGKERELVAAISLSGGRTYYADSVKGRFTISRDNAKNTVYLQMNSLKPEDTAVYYCKVLGNYYGKFDYWGQGTQVTVSS | high polyreactivity |
| QVQLVESGGGLVQAGGSLRLSCSASGITFWYNAMEWYRQAPGKERELVAAISRSAGSTYYADSVKGRFTISRDNAKNTVYLQMNSLKPEDTAVYYCAAKTPGRYYYWGQGTQVTVSS | high polyreactivity |
| QVQLVESGGGLVQAGGSLRLSCSASGLTLKRYAMGWYRQAPGQERELVAAISKSGGSTYYADSVKGRFTISRDNAKNTVYLQMNSLKPEDTAVYYCAADSYNLWDDYWGQGTQVTVSS | low polyreactivity |
| QVQLVESGGGLVQAGGSLRLSCSASGRIFRYNGKGWYRQAHGKERELVAVITHRSGTTSYADSVKGRFTISRDNAKNTVYLQMNSLKPEDTAVYYCARGYYKPSVGKSKRVGGNYLGQGTQVTVSS | high polyreactivity |
| QVQLVESGGGLVQAGGSLRLSCSASGRTFVRNAMGWYRQAPGKERELVAAISSIGDSTYYADSVKGRFTISRDNAKNTVYLQMNSLKPEDTAVYYCNARGYVYYRMGYWGQGTQVTVSS | low polyreactivity |
| QVQLVESGGGLVQAGGSLRLSCSASGSIFGSYAMGGYRQEPGNERELVAAISWRGGNTYYADSVKGRFTISRDNAKNTVYLQMNSLSPEDTAVYYCAAVAYSYGSYRRYYYWGLGTQVTVSS | high polyreactivity |
| QVQLVESGGGLVQAGGSLRLSCSASGSIFPAYAMGWYRQAPGKERELVASITGSGGSTYYADSVKGRFTISRDNAKNTVYLQMNSLKPEDTAVYYCNARYYVYSATVDRYYHFYYCGQGTQVTVSS | high polyreactivity |
| QVQLVESGGGLVQAGGSLRLSCSASGSIFSYYAMGWYRQAPGKERELVAAISRSGGSTYYADSVKGRFTISRDNAKNTVYLQMNSLKPEDTAVYYCAATRIHYPSYDYWGQGTQVTVSS | high polyreactivity |
| QVQLVESGGGLVQAGGSLRLSCSASGSIFVGYAIGWYRQAPVKEMELDASISSGDDTYADSVKGRFTISRDNAKNSVYLQMNSLKPEDTAVYYCAKDSISVDCAYDYWVQGTQVTVSS | low polyreactivity |
| QVQLVESGGGLVQAGGSLRLSCSASGSTFDGNAMVWYRQAPGKERELVAAITQRASNTYYADSVKGRFTISRDNAKNTVYLQMNSLKPEDTAVYYCNADFYVTSAEFYYWGQGSQVTVSS | low polyreactivity |
| QVQLVESGGGLVQAGGSLRLSCSASGSTFTYYAMGWYRQAPVKERELVADIDFSGTSTYYADSVKGRFTVSRDNAKNTVYLQMNSLKPEDTAVYYCATDDYNWFDYDYWGQGTHVTVSS | low polyreactivity |
| QVQLVESGGGLVQAGGSLRLSCSASGSTFYRYAMGWYRQAPGKERELVATITSGGSTHYADSVKGRFTISRDNAKNTVYLQMNSLKPEDTAVYYAATTSDWYTTINVVYRYYYWGQGTQVTVSS | high polyreactivity |
| QVQLVESGGGLVQAGGSLRLSCSASGSTFYVYAMGWYRQAPGKERELVAAIDWSDGSTYYADSVKGRFTISRDNAKNTVYLQMNSLKPEDTAVYYCAADVGGGVDYVDYYYWGQGTQVTVSS | high polyreactivity |
